Changes are numbered by the printed parent chain.
Columns and labels:
[1] = biological target: T1, 5-Helix (HIV-1 group M subtype B, HXB2 (gp41 …, stabilised)); test: ELISA; conditions: one partner purified
T1 construct: also called designed protein based on HIV-1 gp41

[2] = biological target: T1, 5-Helix; test: ELISA; conditions: both partners purified
[3] = biological target: T1, 5-Helix; test: ELISA; competitive phage ELISA, on-phage bivalent scFv: binding to immobilised 5-Helix inhibited by free 5-Helix or free 6-Helix-Fd (concentrations for the trimer); apparent; conditions: one partner purified
[4] = biological target: T2, 6-Helix-Fd (HIV-1 gp41 (HXB2-like, printed sequence), stabilised); test: as above; conditions: one partner purified
T2 construct: also called post-fusion six-helix bundle mimic
T2 chain: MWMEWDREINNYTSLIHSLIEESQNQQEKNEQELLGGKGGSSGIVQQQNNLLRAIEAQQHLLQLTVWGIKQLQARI

B1: 16F6 bivalent scFv on phage (scFv, V domains shown)
VH: QVQLVQSGAEVRKPGASVKVSCKASGDTFSSYAISWVRQAPGQGLEWMGGIIPIFGTANYAQAFQGRVTITANESTSTAYMELSSLRSEDTAIYYCARDNPTLLGSDYWGAGTLVTVSS
VL: DIQMTQSPSTLSASIGDRVTITCRASESISSILAWYQQKPGKAPKLLISNASRLASGAPSRFSGSGSGTDFTLTISSLQPDDFATYYCQQRSNYPFTFGGGTKLEIK
- F_competitive (signal with 40 nM free 5-Helix / signal without) [1]: 0.8 fraction
- phage ELISA signal OD450 [1]: 3 OD450

B2: 16F5 bivalent scFv on phage (scFv, V domains shown)
VH: B1 VH
VL: B1 VL with S28N, S30N, S31D, I32H, N50R, S52Y, R91Y, S92A, N93D, Y94T
- F_competitive (signal with 40 nM free 5-Helix / signal without) [1]: 0.2 fraction
- phage ELISA signal OD450 [1]: 3 OD450

B3: 25C10 scFv, purified monovalent (scFv, V domains shown)
VH: B1 VH
VL: B1 VL with S28N, S30Y, S31G, I32N, N50R, S92Y, N93T, F96L
- IC50 [2]: 56 nM

B4: 2H10 bivalent scFv on phage (scFv, V domains shown)
VH: B1 VH
VL: B1 VL with S28D, S30Y, S31R, I32S, N50R, R91Y, F96L
- F_competitive (signal with 40 nM free 5-Helix / signal without) [1]: 0.1 fraction
- phage ELISA signal OD450 [1]: 1.9 OD450

B5: 25C10 bivalent scFv on phage (scFv, V domains shown)
VH: B1 VH
VL: B1 VL with S28N, S30Y, S31G, I32N, N50R, S92Y, N93T, F96L
- F_competitive (signal with 40 nM free 5-Helix / signal without) [1]: 0.1 fraction
- phage ELISA signal OD450 [1]: 3.2 OD450
- IC50 [3]: 1.8 nM
- IC50 [4]: 28 nM

B6: 25B8 bivalent scFv on phage (scFv, V domains shown)
VH: B1 VH
VL: B1 VL with S28N, S30N, S31R, I32N, N50R, S92Y, F96Y
- F_competitive (signal with 40 nM free 5-Helix / signal without) [1]: 0.2 fraction
- phage ELISA signal OD450 [1]: 2.9 OD450
- IC50 [3]: 3.1 nM
- IC50 [4]: ~100 nM

B7: 25A5 bivalent scFv on phage (scFv, V domains shown)
VH: B1 VH
VL: B1 VL with S30R, I32H, N50R, R91S, N93D, F96H
- F_competitive (signal with 40 nM free 5-Helix / signal without) [1]: 0.1 fraction
- phage ELISA signal OD450 [1]: 3.5 OD450

B8: 25C5 bivalent scFv on phage (scFv, V domains shown)
VH: B1 VH
VL: B1 VL with S28D, S30H, S31D, I32Y, N50R, R91N, S92D, N93S, F96Y
- F_competitive (signal with 40 nM free 5-Helix / signal without) [1]: 0.5 fraction
- phage ELISA signal OD450 [1]: 0.7 OD450

B9: 25C6 bivalent scFv on phage (scFv, V domains shown)
VH: B1 VH
VL: B1 VL with S28N, I32R, S52Y, R53H, F96H
- F_competitive (signal with 40 nM free 5-Helix / signal without) [1]: 0.2 fraction
- phage ELISA signal OD450 [1]: 1.8 OD450
- IC50 [3]: 32 nM
- IC50 [4]: ~1000 nM

B10: 25E1 bivalent scFv on phage (scFv, V domains shown)
VH: B1 VH
VL: DIQMTQSPSTLSASIGDRVTITCRASEDIGGSLAWYQQKPGKAPKLLISHAYSLASGAPSRFSGSGSGTDFTLTISSLQPDDFATYYCQQHATYPHTFGGGTKLEIK
- F_competitive (signal with 40 nM free 5-Helix / signal without) [1]: 0.1 fraction
- phage ELISA signal OD450 [1]: 3 OD450

B11: 16E3 bivalent scFv on phage (scFv, V domains shown)
VH: B1 VH
VL: B10 VL with D28G, G30R, G31Y, S32G, H50R, Y52S, S53R, A92Y, T93A
- F_competitive (signal with 40 nM free 5-Helix / signal without) [1]: 0.7 fraction
- phage ELISA signal OD450 [1]: 3 OD450

B12: 25D8 bivalent scFv on phage (scFv, V domains shown)
VH: B1 VH
VL: B1 VL with S28G, I32N, N50R, S52Y, S92A, N93T, F96L
- F_competitive (signal with 40 nM free 5-Helix / signal without) [1]: 0.2 fraction
- phage ELISA signal OD450 [1]: 3.2 OD450
- IC50 [3]: 5.8 nM
- IC50 [4]: ~3000 nM

B13: 25B6 bivalent scFv on phage (scFv, V domains shown)
VH: B1 VH
VL: B1 VL with S28N, S30R, I32G, S49Y, N50R, R91Y, S92D, N93D, F96H
- F_competitive (signal with 40 nM free 5-Helix / signal without) [1]: 0.1 fraction
- phage ELISA signal OD450 [1]: 1.4 OD450
- IC50 [3]: 0.3 nM
- IC50 [4]: 23 nM

B14: 25B4 bivalent scFv on phage (scFv, V domains shown)
VH: B1 VH
VL: B10 VL with D28G, G30R, G31N, S32G, H50R, Y52S, S53H, H91Y, A92Y, T93A
- F_competitive (signal with 40 nM free 5-Helix / signal without) [1]: 0.1 fraction
- phage ELISA signal OD450 [1]: 2.9 OD450

B15: 25A10 bivalent scFv on phage (scFv, V domains shown)
VH: B1 VH
VL: B1 VL with S31H, I32N, R91Y, F96L
- F_competitive (signal with 40 nM free 5-Helix / signal without) [1]: 0.1 fraction
- phage ELISA signal OD450 [1]: 3.2 OD450
- IC50 [3]: 1.6 nM
- IC50 [4]: 260 nM

B16: 16E12 bivalent scFv on phage (scFv, V domains shown)
VH: B1 VH
VL: B1 VL with S28G, S30R, S31R, I32S, R53H, R91Y, S92Y, F96R
- F_competitive (signal with 40 nM free 5-Helix / signal without) [1]: 0.1 fraction
- phage ELISA signal OD450 [1]: 3.1 OD450

B17: 25C4 bivalent scFv on phage (scFv, V domains shown)
VH: B1 VH
VL: B1 VL with S30L, S31G, I32S, S49Y, N50R, R53H, R91Y, F96L
- F_competitive (signal with 40 nM free 5-Helix / signal without) [1]: 0.1 fraction
- phage ELISA signal OD450 [1]: 2.5 OD450

B18: 25A12 bivalent scFv on phage (scFv, V domains shown)
VH: B1 VH
VL: B1 VL with S28G, S30H, S31R, I32Y, S49Y, N50H, S92A, F96Y
- F_competitive (signal with 40 nM free 5-Helix / signal without) [1]: 0.1 fraction
- phage ELISA signal OD450 [1]: 3.2 OD450
- IC50 [3]: 2.2 nM
- IC50 [4]: 220 nM

B19: 25D6 bivalent scFv on phage (scFv, V domains shown)
VH: B1 VH
VL: B1 VL with S28N, S30Y, I32N, N50S, R91N, Y94N, F96H
- F_competitive (signal with 40 nM free 5-Helix / signal without) [1]: 0.1 fraction
- phage ELISA signal OD450 [1]: 1.6 OD450
- IC50 [3]: 0.5 nM
- IC50 [4]: ~80 nM

B20: 16B7 bivalent scFv on phage (scFv, V domains shown)
VH: B1 VH
VL: B10 VL with D28N, G30L, G31R, S32L, S49Y, H50Y, Y52S, H91R, T93D, H96Y
- F_competitive (signal with 40 nM free 5-Helix / signal without) [1]: 0.6 fraction
- phage ELISA signal OD450 [1]: 3 OD450

B21: D5 bivalent scFv (biv-scFv) displayed on M13 phage (scFv, V domains shown)
VH: B1 VH
VL: B1 VL with S28G, S30Y, S31H, I32W, S49Y, N50K, R53S, R91Y, F96L
- IC50 [3]: 0.1 nM
- IC50 [4]: 11 nM

B22: 25F10 bivalent scFv on phage (scFv, V domains shown)
VH: B1 VH
VL: B1 VL with S28G, S30H, S31N, I32R, N50H, R53N, R91Y, F96L
- F_competitive (signal with 40 nM free 5-Helix / signal without) [1]: 0.1 fraction
- phage ELISA signal OD450 [1]: 1.7 OD450
- IC50 [3]: 0.2 nM
- IC50 [4]: 22 nM

B23: 25C12 bivalent scFv on phage (scFv, V domains shown)
VH: B1 VH
VL: B1 VL with S28D, I32V, S49Y, S92A, Y94N, F96H
- F_competitive (signal with 40 nM free 5-Helix / signal without) [1]: 0.3 fraction
- phage ELISA signal OD450 [1]: 2.2 OD450
- IC50 [3]: 100 nM
- IC50 [4]: ~1000 nM

B24: 25D9 bivalent scFv on phage (scFv, V domains shown)
VH: B1 VH
VL: B1 VL with S28D, S30L, S31G, I32R, S49Y, N50R, S92A, F96L
- F_competitive (signal with 40 nM free 5-Helix / signal without) [1]: 0.2 fraction
- phage ELISA signal OD450 [1]: 3 OD450
- IC50 [3]: 1.7 nM
- IC50 [4]: 230 nM

B25: 25D3 bivalent scFv on phage (scFv, V domains shown)
VH: B1 VH
VL: B10 VL with D28N, G30H, G31R, S32R, S49Y, H50S, H91N, A92S, T93D
- F_competitive (signal with 40 nM free 5-Helix / signal without) [1]: 0.1 fraction
- phage ELISA signal OD450 [1]: 1.6 OD450
- IC50 [3]: 17 nM
- IC50 [4]: 170 nM

B26: 25G8 bivalent scFv on phage (scFv, V domains shown)
VH: B1 VH
VL: B1 VL with S30G, S31R, I32S, S49Y, N50R, R91S, N93T, Y94T, F96L
- F_competitive (signal with 40 nM free 5-Helix / signal without) [1]: 0.1 fraction
- phage ELISA signal OD450 [1]: 2.1 OD450
- IC50 [3]: 7.2 nM
- IC50 [4]: 300 nM

B27: 25F1 bivalent scFv on phage (scFv, V domains shown)
VH: B1 VH
VL: B1 VL with S28G, S30N, S31N, I32S, N50R, R91Y, N93S, Y94T, F96H
- F_competitive (signal with 40 nM free 5-Helix / signal without) [1]: 0.1 fraction
- phage ELISA signal OD450 [1]: 2.3 OD450
- IC50 [3]: 0.9 nM
- IC50 [4]: 40 nM

B28: 25F12 bivalent scFv on phage (scFv, V domains shown)
VH: B1 VH
VL: B1 VL with S28G, S30I, S31G, I32H, S49Y, S92D, N93D, F96L
- F_competitive (signal with 40 nM free 5-Helix / signal without) [1]: 0.2 fraction
- phage ELISA signal OD450 [1]: 2.7 OD450

B29: 16E8 bivalent scFv on phage (scFv, V domains shown)
VH: B1 VH
VL: B10 VL with D28S, G30Y, Y52S, S53H, H91N, A92D
- F_competitive (signal with 40 nM free 5-Helix / signal without) [1]: 0.4 fraction
- phage ELISA signal OD450 [1]: 3 OD450

B30: 16D10 bivalent scFv on phage (scFv, V domains shown)
VH: B1 VH
VL: B10 VL with D28N, G30R, S49Y, H50R, Y52S, S53R, A92S, T93D
- F_competitive (signal with 40 nM free 5-Helix / signal without) [1]: 0.7 fraction
- phage ELISA signal OD450 [1]: 3 OD450

B31: 25A6 bivalent scFv on phage (scFv, V domains shown)
VH: B1 VH
VL: B10 VL with D28G, G30Y, G31D, S32G, H50R, S53Y, H91R, T93N
- F_competitive (signal with 40 nM free 5-Helix / signal without) [1]: 0.1 fraction
- phage ELISA signal OD450 [1]: 3.1 OD450

B32: 16G6 bivalent scFv on phage (scFv, V domains shown)
VH: B1 VH
VL: B1 VL with S28G, S30R, S31R, I32S, R53H, R91Y, S92Y, F96R
- F_competitive (signal with 40 nM free 5-Helix / signal without) [1]: 0.3 fraction
- phage ELISA signal OD450 [1]: 2.3 OD450

From article PMC3626704 (BMC Biochemistry, 2013)
